# Experimental data: publication PMC9927489 (Microbiology Spectrum, 2023)
# Like-named read-outs stand apart in the source and are kept apart here.
# What was measured:
# [1] = target: Mycobacterium tuberculosis dUTPase mutant mDut H145F, His-tagged (Mycobacterium tuberculosis (strain H37Rv)) (UniProt P9WNS5); test: BLI; […] (218.7 nM) […]; 28°C; 1:1 kinetic model
# [2] = target: Mycobacterium tuberculosis dUTPase mutant mDut H145F, His-tagged (Mycobacterium tuberculosis (strain H37Rv)) (UniProt P9WNS5); test: BLI; […] (218.7 nM) […]; 28°C; 1:1 kinetic model; remark: listed apart in the source
substance,measurement,setting,value
"Stl^N-ter (SaPIbov1 Stl, N-terminal DNA-binding domain and middle domain, residues 1 to 156) (domain or fragment)",Kd,[1],0.0124 µM
same,Kd,[2],0.0125 µM
same,koff,[2],0.00483 s⁻¹
same,kon,[2],388000 M⁻¹ s⁻¹
